# Data as given in patent US10688131B2, “Peptides and scaffolds for use in immunotherapy against head and neck squamous cell carcinoma and other cancers” (Immatics Biotechnologies GmbH, priority 2016, dated 2020).
# Legend:
# HLA-A*02:01 = HLA-A*02:01 (Homo sapiens, UniProt P04439, D140Y/D185E/D98H/E176V/E277Q/G131W/G231S/I119V/I121R/I166T/I218V/L300P/L318F/N151K/N90K/P208A/P217A/Q86G/Q94H/R138H/R169H/T345S); test: MHC binding assay: UV-ligand exchange with β2m ELISA; details: binding of HLA-class I restricted peptides to HLA-A*02:01
# Source text: Candidate peptides for T cell based therapies according to the present invention were further tested for their MHC binding capacity (affinity). The individual peptide-MHC complexes were produced by UV-ligand exchange, where a UV-sensitive peptide is cleaved upon UV-irradiation, and exchanged with the peptide of interest as analyzed. Only peptide candidates that can effectively bind and stabilize the peptide-receptive MHC molecules prevent dissociation of the MHC complexes. To determine the yield of the exchange reaction, an ELISA was performed based on the detection of the light chain (β2m) of stabilized MHC complexes. The assay was performed as generally described in Rodenko et al. (Rodenko et al., 2006).
# 96 well MAXISorp plates (NUNC) were coated over night with 2 ug/ml streptavidin in PBS at room temperature, washed 4× and blocked for 1 h at 37° C. in 2% BSA containing blocking buffer. Refolded HLA-A*02:01/MLA-001 monomers served as standards, covering the range of 15-500 ng/ml. Peptide-MHC monomers of the UV-exchange reaction were diluted 100-fold in blocking buffer. Samples were incubated for 1 h at 37° C., washed four times, incubated with 2 ug/ml HRP conjugated anti-β2m for 1 h at 37° C., washed again and detected with TMB solution that is stopped with […]. Absorption was measured at 450 nm. Candidate peptides that show a high exchange yield (preferably higher than 50%, most preferred higher than 75%) are generally preferred for a generation and production of antibodies or fragments thereof, and/or T cell receptors or fragments thereof, as they show sufficient avidity to the MHC molecules and prevent dissociation of the MHC complexes.
# CD8+ T cells = test: In vitro T-cell priming assay with aAPCs loaded with peptide/MHC complexes and anti-CD28 antibody, pMHC multimer readout; type: cell-based, human; details: percentage of positive wells among evaluable, HLA-A*02 restricted peptides
# Source text: In order to obtain information regarding the immunogenicity of the TUMAPs of the present invention, the inventors performed investigations using an in vitro T-cell priming assay based on repeated stimulations of CD8+ T cells with artificial antigen presenting cells (aAPCs) loaded with peptide/MHC complexes and anti-CD28 antibody.
# In order to perform in vitro stimulations by artificial antigen presenting cells loaded with peptide-MHC complex (pMHC) and anti-CD28 antibody, the inventors first isolated CD8+ T cells from fresh HLA-A*02 leukapheresis products via positive selection using CD8 microbeads (Miltenyi Biotech, Bergisch-Gladbach, Germany) of healthy donors obtained from the University clinics Mannheim, Germany, after informed consent.
# PBMCs and isolated CD8+ lymphocytes were incubated in T-cell medium (TCM) until use consisting of RPMI-Glutamax (Invitrogen, Karlsruhe, Germany) supplemented with 10% heat inactivated human AB serum (PAN-Biotech, Aidenbach, Germany), 100 U/ml Penicillin/100 μg/ml Streptomycin (Cambrex, Cologne, Germany), 1 mM sodium pyruvate (CC Pro, Oberdorla, Germany), 20 μg/ml Gentamycin (Cambrex). 2.5 ng/ml IL-7 (PromoCell, Heidelberg, Germany) and 10 U/ml IL-2 (Novartis Pharma, Nürnberg, Germany) were also added to the TCM at this step.
# Generation of pMHC/anti-CD28 coated beads, T-cell stimulations and readout was performed in a highly defined in vitro system using four different pMHC molecules per stimulation condition and 8 different pMHC molecules per readout condition.
# The purified co-stimulatory mouse IgG2a anti human CD28 Ab 9.3 (Jung et al., 1987) was chemically biotinylated using Sulfo-N-hydroxysuccinimidobiotin as recommended by the manufacturer (Perbio, Bonn, Germany). Beads used were 5.6 μm diameter streptavidin coated polystyrene particles (Bangs Laboratories, Illinois, USA).
# pMHC used for positive and negative control stimulations were A*0201/MLA-001 (peptide […] (SEQ ID NO. 157) from modified Melan-A/MART-1) and A*0201/DDX5-001 ([…] from DDX5, SEQ ID NO. 158), respectively.
# 800.000 beads/200 μl were coated in 96-well plates in the presence of 4×12.5 ng different biotin-pMHC, washed and 600 ng biotin anti-CD28 were added subsequently in a volume of 200 μl. Stimulations were initiated in 96-well plates by co-incubating 1×10^6 CD8+ T cells with 2×10^5 washed coated beads in 200 μl TCM supplemented with 5 ng/ml IL-12 (PromoCell) for 3 days at 37° C. Half of the medium was then exchanged by fresh TCM supplemented with 80 U/ml IL-2 and incubating was continued for 4 days at 37° C. This stimulation cycle was performed for a total of three times. For the pMHC multimer readout using 8 different pMHC molecules per condition, a two-dimensional combinatorial coding approach was used as previously described (Andersen et al., 2012) with minor modifications encompassing coupling to 5 different fluorochromes. Finally, multimeric analyses were performed by staining the cells with Live/dead near IR dye (Invitrogen, Karlsruhe, Germany), CD8-FITC antibody clone SK1 (BD, Heidelberg, Germany) and fluorescent pMHC multimers. For analysis, a BD LSRII SORP cytometer equipped with appropriate lasers and filters was used. Peptide specific cells were calculated as percentage of total CD8+ cells. Evaluation of multimeric analysis was done using the FlowJo software (Tree Star, Oregon, USA). In vitro priming of specific multimer+CD8+ lymphocytes was detected by comparing to negative control stimulations.
# Exemplary flow cytometry results after TUMAP-specific multimer staining for 2 peptides of the invention are shown in FIGS. 3A and 3B together with corresponding negative controls. Additional exemplary flow cytometry results after TUMAP-specific multimer staining for 3 peptides of the invention are shown in FIGS. 4A-4C together with corresponding negative controls.
"Peptide exchange (MHC class I binding score, peptide exchange yield) (HLA-A*02:01)",Substance,Wells positive [%] (CD8+ T cells)
++++ (>75% = ++++),11 (VLFSSPPVI; listed as Homo sapiens) [compound 11],++ (20%-49% = ++)
++++ (>75% = ++++),17 (SIWPALTQV; listed as Homo sapiens) [compound 17],++++ (>=70% = ++++)
+++ (>50 = +++),82 (VLDINDNPPV; listed as Homo sapiens) [compound 82],+ (<20% = +)
+++ (>50 = +++),26 (TLVDENQSWYL; listed as Homo sapiens) [compound 26],++ (20%-49% = ++)
++++ (>75% = ++++),20 (YLINEIDRIRA; listed as Homo sapiens) [compound 20],+ (<20% = +)
+++ (>50 = +++),16 (ALKDSVQRA; listed as Homo sapiens) [compound 16],+ (<20% = +)
++++ (>75% = ++++),1 (GLAGGFGGPGFPV; listed as Homo sapiens) [compound 1],+ (<20% = +)
++++ (>75% = ++++),19 (ALAKLLPLL; listed as Homo sapiens) [compound 19],++ (20%-49% = ++)
